Numbering of substitutions follows the chain as printed. Names may count otherwise. “Also recorded” adds a separate entry of the source.
Test system: chromosomally integrated CMV-7tetO luciferase reporter in HeLa X1/6 cells
Assay: rtTA activity assay, HeLa X1/6 cells with integrated CMV-7tetO luciferase reporter (Example 1, FIG. 2-3, 5, 14, 15)
Assay type: cell-based
Settings: for basal / background activity in the absence of inducer: no dox or other effector; for rtTA activation by minocycline (Mc): 0-10000 ng/ml Mc
From the text: To test whether this rtTA optimization reflects a specific adaptation to the viral LTR-2ΔtetO promoter, we assayed rtTA activity with a reporter gene construct in which luciferase expression is under the control of a minimal CMV promoter coupled to an array of seven tetO elements. […] Thus, the observed mutations in rtTA are not virus-specific adaptations, but are general improvements of the Tet-on system. We also assayed rtTA activity in HeLa X1/6 cells that contain chromosomally integrated copies of the CMV-7tetO luciferase reporter construct (FIG. 2C). In these cells, the evolved rtTAs show a similar pattern of activity as with episomal reporter gene constructs in C33A cells. Thus, these mutations improve rtTA activity independent of the type of promoter and the episomal or chromosomal status of the target gene.
The V10 variant needs only 44 ng/ml dox to reach this activity level, which reflects a 23-fold higher dox-sensitivity than the wild-type rtTA.
rtTA activity assay. Two firefly luciferase reporter constructs with different promoter configurations were used. pLTR-2ΔtetO-luc contains the LTR-2ΔtetO promoter derived from the HIV-rtTA molecular clone (Marzio et al. 2001; Marzio et al. 2002). pCMV-7tetO-luc, previously named pUHC13-3 (Gossen et al. 1992), contains seven tetO elements located upstream of a minimal CMV promoter. The plasmid pRL-CMV (PROMEGA®, Madison, Wis., USA), in which the expression of Renilla luciferase is controlled by the CMV promoter, was used as an internal control to allow correction for differences in transfection efficiency.
C33A and HeLa X1/6 cells were grown in 2-cm^2 wells to 60% confluency and transfected by the calcium phosphate precipitation method (Das et al. 1999). C33A cells were transfected with 0.4 ng pCMV-rtTA (wild-type or mutant), 20 ng pLTR-2ΔtetO-luc or pCMV-7tetO-luc, 0.5 ng pRL-CMV, and 980 ng pBluescript as carrier DNA. HeLa X1/6 cells were transfected with 8 ng pCMV-rtTA, 2.5 ng pRL-CMV, and 990 ng pBluescript. The amount of the DNA constructs was optimized for each cell type to keep rtTA-mediated transactivation within the linear range and to avoid squelching of transcription factors. Cells were cultured for 48 hours in the presence of different concentrations of dox, Tc or Mc, and lysed in Passive Lysis Buffer (PROMEGA®). Firefly and Renilla luciferase activities were determined with the dual-luciferase reporter assay (PROMEGA®). The activity of the rtTA variants was calculated as the ratio of the firefly and Renilla luciferase activities, and corrected for between-session variation.
FIG. 2. Novel rtTA variants show increased activity and dox-sensitivity in different Tet systems. The transcriptional activity of rtTA variants was measured in C33A cells transfected with a plasmid carrying the firefly luciferase reporter gene under the control of the viral LTR-2ΔtetO promoter (LTR-2ΔtetO; A) or under the control of a minimal CMV-derived promoter coupled to seven tetO elements (CMV7-tetO; B). Furthermore, rtTA activity was measured in HeLa X1/6 cells (Baron et al. 1997) that contain a chromosomally integrated copy of the CMV-7tetO reporter construct (CMV7tetO-integrated; C, D). Variants V1 to V10 were compared in all three Tet systems (panels A-C) and variants V11 to V18 in the cells with the integrated reporter (panel D). Cells were transfected with the indicated rtTA expression plasmid or pBluescript as a negative control, and a plasmid constitutively expressing Renilla luciferase to correct for differences in transfection efficiency. Cells were cultured in the presence of different dox concentrations (0-1000 ng/ml). The ratio of the firefly and Renilla luciferase activities measured 2 days after transfection reflects the rtTA activity. All values were related to the wild-type (wt) rtTA activity at 1000 ng/ml dox, which was arbitrarily set at 100%. In (C and D), average values of three transfections are shown with error bars indicating the standard deviation.
FIG. 3. […]

B1: V9I F67S C68R G138D F86Y: rtTA variant with these amino acid substitutions (protein)
chain: MSRLDKSKIINSALELLNGVGIEGLTTRKLAQKLGVEQPTLYWHVKNKRALLDALPIEMLDRHHTHSRPLEGESWQDFLRNNAKSYRCALLSHRDGAKVHLGTRPTEKQYETLENQLAFLCQQGFSLENALYALSAVDHFTLGCVLEEQEHQVAKEERETPTTDSMPPLLRQAIELFDRQGAEPAFLFGLELIICGLEKQLKCESGGPADALDDFDLDMLPADALDDFDLDMLPADALDDFDLDMLPG
basal / background activity in the absence of inducer: no or low basal activity

B2: V9I F67S R171K F86Y: rtTA variant with these amino acid substitutions (protein)
chain: B1 chain with R68C, D138G, R171K
basal / background activity in the absence of inducer: no or low basal activity

B3: V9I F67S G138D F86Y: rtTA variant with these amino acid substitutions (protein)
chain: B1 chain with R68C
basal / background activity in the absence of inducer: no or low basal activity

B4: E37Q F67S F86Y A209T: rtTA variant with these amino acid substitutions (protein)
chain: B1 chain with I9V, E37Q, R68C, D138G, A209T
rtTA activation by minocycline (Mc) (listed as F67S E37Q F86Y A209T): particularly sensitive for minocycline; also recorded: very sensitive for minocycline | basal / background activity in the absence of inducer: no or low basal activity | basal / background activity in the absence of inducer (listed as F67S E37Q F86Y A209T): low background activity

B5: V9I F67S E157K F86Y: rtTA variant with these amino acid substitutions (protein)
chain: B1 chain with R68C, D138G, E157K
basal / background activity in the absence of inducer: no or low basal activity

B6: V9I F67S C68R G138D F86Y A209T: rtTA variant with these amino acid substitutions (protein)
chain: B1 chain with A209T
rtTA activation by minocycline (Mc): particularly sensitive for minocycline | rtTA activation by tetracycline (Tc) (0-10000 ng/ml Tc): particularly sensitive for tetracycline | basal / background activity in the absence of inducer: no or low basal activity

B7: E37Q F67S F86Y: rtTA variant with these amino acid substitutions (protein)
chain: B1 chain with I9V, E37Q, R68C, D138G
basal / background activity in the absence of inducer: no or low basal activity

B8: V9I C68R G138D F86Y: rtTA variant with these amino acid substitutions (protein)
chain: B1 chain with S67F
basal / background activity in the absence of inducer: no or low basal activity
